Reference: article PMC3992434 (Developmental cell, 2013)

Molecular target: MBP-LDLR tail wild-type (full-length LDLR tail fused to maltose-binding protein)
Assay: pull-down

- fold binding relative to AP-1A: ~5 fold
B1: recombinant GST-His-tagged AP-1B core complex (γ, β1, μ1B, σ1) (complex)
chain 1: not shown
chain 2: MTDSKYFTTTKKGEIFELKAELNSDKKEKKKEAVKKVIASMTVGKDVSALFPDVVNCMQTDNLELKKLVYLYLMNYAKSQPDMAIMAVNTFVKDCEDPNPLIRALAVRTMGCIRVDKITEYLCEPLRKCLKDEDPYVRKTAAVCVAKLHDINAQLVEDQGFLDTLKDLISDSNPMVVANAVAALSEIAESHPSSNLLDLNPQSINKLLTALNECTEWGQIFILDCLANYMPKDDREAQSICERVTPRLSHANSAVVLSAVKVLMKFMEMLSKDLDYYGTLLKKLAPPLVTLLSAEPELQYVALRNINLIVQKRPEILKHEMKVFFVKYNDPIYVKLEKLDIMIRLASQANIAQVLAELREYATEVDVDFVRKAVRAIGRCAIKVEQSAERCVSTLLDLIQTKVNYVVQEAIVVIKDIFRKYPNKYESVIATLCENLDSLDEPEARAAMIWIVGEYAERIDNADELLESFLEGFHDKSTQVQLQLLTAFVKLFLKKPTETQELVQQVLSLATQDSDNPDLRDRGYIYWRLLSTDPVAAKEVVLAEKPLISEETDLIEPTLLDELICYIGTLASVYHKPPSAFVEG
chain 3: MSASAVFILDVKGKPLISRNYKGDVPMTEIDHFMPLLMQREEEGVLAPLLSHGRVHFLWIKHSNLYLVATTLKNANASLVYSFLYKTVEVFCEYFKELEEESIRDNFVIVYDLLDELMDFGFPQTTDSKILQEYITQQGNKLETGKSRVPPTVTNAVSWRSEGIKYKKNEVFIDVIESVNLLVNANGSVLLSEIVGTIKLKVFLSGMPELRLGLNDRVLFELTGRSKNKSVELEDVKFHQCVRLSRFDNDRTISFIPPDGDFELMSYRLSTQVKPLIWIESVIEKFSHSRVEIMVKAKGQFKKQSVANGVEISVPVPSDADSPRFKTSVGSAKYVPEKNVVIWSIKSFPGGKEYLMRAHFGLPSVETEEVEGRPPIGVKFEIPYFTVSGIQVRYMKIIEKSGYQALPWVRYITQSGDYQLRTS
chain 4: MIHFILLFSRQGKLRLQKWYITLPDKERKKITREIVQIILSRGHRTSSFVDWKELKLVYKRYASLYFCCAIENQDNELLTLEIVHRYVELLDKYFGNVCELDIIFNFEKAYFILDEFIIGGEIQETSKKIAVKAIEDSDMLQEVSTVCQTMGER
